Target: LptAm^Q62L (E. coli) (E. coli (ATCC 25922))
Assay: fluorescence polarisation; indirect (competition) assay: unlabeled peptide or protein serially diluted into a 1:1 mixture of Lpt protein and 6-FL (2x stock 70 nM); 50 mM Na-Pi pH 7, 150 mM NaCl, 0.05% Tween 20; incubated overnight at 4°C, read at 25°C; triplicates; Ki from IC50 by Cheng-Prusoff

B1: mLptA (E. coli), LptA(25-185) E39V M47A R76A (domain or fragment)
chain: GAFAVTGDTDQPIHIVSDQQSLDAQGNVVTFTGNVIVTQGTIKINADKVVVTAPGGEQGKEVIDGYGKPATFYQMQDNGKPVEGHASQMHYELAKDFVVLTGNAYLQQVDSNIKGDKITYLVKEQKMQAFSDKGKRVTTVLVPSQLQDKNNKGQTPAQKKGN
B1 showed a Ki of 69 nM.

Reference: PMC10208570, “Peptidomimetic antibiotics disrupt the lipopolysaccharide transport bridge of drug-resistant Enterobacteriaceae” (Science Advances, 2023)
